Source: patent US20250230253A1 (Memorial Sloan Kettering, published 2025)

T1: mouse CD40 (mouse, UniProt P27512 20-193, limits assumed)
T1 construct: Recombinant mouse CD40 protein for ELISA; The construct and tag are not described; also called mCD40
T1 sequence (looked up): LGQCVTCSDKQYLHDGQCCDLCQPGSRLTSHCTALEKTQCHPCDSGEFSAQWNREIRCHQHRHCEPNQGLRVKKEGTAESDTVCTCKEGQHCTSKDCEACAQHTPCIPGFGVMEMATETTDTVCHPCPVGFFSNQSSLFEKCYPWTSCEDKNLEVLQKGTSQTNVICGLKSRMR


Experiments:
human CD40 [1] = biological target: T2, human CD40 (human, UniProt P25942 21-193); assay: ELISA of subcloned hybridoma supernatants on hCD40, anti-mouse IgG-HRP detection
T2 construct: Recombinant protein coated for ELISA; The primary screen used 'soluble, His-tagged human CD40 (full-length and IgC2)'; also called huCD40; hCD40; not shown: His tag
T2 sequence (P25942 21-193 limits assumed): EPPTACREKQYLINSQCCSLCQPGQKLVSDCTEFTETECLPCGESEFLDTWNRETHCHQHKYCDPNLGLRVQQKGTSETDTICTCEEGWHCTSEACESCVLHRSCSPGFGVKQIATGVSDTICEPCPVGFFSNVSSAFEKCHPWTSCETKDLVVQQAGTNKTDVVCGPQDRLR
Method: Next, the hybridomas were selected for subcloning to identify monoclonal antibodies against CD40. Briefly, cells were plated at a 1 cell per well density in 384-well plates, confirmed by microscopy, and expanded. After expansion, supernatants were screened by ELISA against hCD40. The mAbs were detected using anti-mouse IgG-conjugated to HRP.

mouse CD40 = biological target: T1, mouse CD40; assay: ELISA on recombinant mouse CD40 protein, hybridoma supernatant
human CD40 [2] = biological target: T2, human CD40; assay: ELISA on recombinant human CD40 protein, hybridoma supernatant

Binder	binding result (human CD40 [1])	binding result (mouse CD40)	binding result (human CD40 [2])
anti-CD40 antibody 30-P15 (antibody, V domains shown, Mouse hybridoma monoclonal antibody tested as hybridoma supernatant and detected with anti-mouse IgG-HRP) VH: EVMLVESGGALVKPGGSLKLSCAASGFTFSNYAMSWVRQTPEKRLEWVATIGTSGSYTYYSDSVKGRFTISRDNARNTLYLQMTSLRSEDTAMYYCARRGYYNPTHAMDYWGQGTSVTVSS VL: QAVVTQESALTTSPGETVTLTCRSSTGAVTTSNYANWVQEKPDHLFTGLIGGTNNRAPGVPARFSGSLIGDKAALTITGAQTEDEAIYFCALWYSNHLVFGGGTKLTVL	binds	no binding	–
anti-CD40 antibody 41-E17 (antibody, V domains shown, Mouse hybridoma monoclonal antibody tested as hybridoma supernatant and detected with anti-mouse IgG-HRP) VH: DVQLVESGGGLVQPGGSRKLSCAASGFTFSTFGMHWVRQAPEKGLEWVAYISGGSSTIYYADTVKGRFTISRDNPKNTLFLQMTSLRSEDTAMYYCVRPYGSVHYAMDYWGQGTSVTVSS VL: DIQMTQTTSSLSASLGDRVTISCRASQDINNYLNWYQQKPDGTVKLLIYYTSRFHSGVPSRFSGSGSGTDYSLTISNLEQEDIATYFCQQGNTLPWTFGGGTKLDIK	binds	no binding	–
anti-CD40 antibody 39-K17 (antibody, V domains shown, Mouse hybridoma monoclonal antibody tested as hybridoma supernatant and detected with anti-mouse IgG-HRP) VH: QVQLQQPGAELVKPGASVKLSCTASGYIFTNYWMNWVKQRPGRGLEWIGRIHPSDSESLYNQKFKSKAILTVDKSSSTAYIQLSSLTSEDSAVYYCARSPLTKVVTTDFWGQGTTLTVSS VL: EIVLTQSPAIMPASPGEKVTMTCSASSSVNYMHWYQQKSGTSPKRWIYDTSKLASGVPVRFSGSGSGTSYSLTISSMEAEDAATYYCQQWSSNPLTFGGGTKLEIK	binds	no binding	–
anti-CD40 antibody 41-J9 (antibody, V domains shown, Mouse hybridoma monoclonal antibody tested as hybridoma supernatant and detected with anti-mouse IgG-HRP) VH: DVQLQESGPDLVKPSQSLSLTCTVTGYSITSDYSWHWIRQFPGNKLEWMGYIYYSGSTNYNPSLKSRISITRDTSKNQFFLQLNSVTSEDTATYYCARFYYGWSYFDYWGQGTSLTVSS VL: EIVLTQSPAIMPASPGEKVTMTCSASSSVNYMHWYQQKSGTSPKRWIYDTSKLASGVPVRFSGSGSGTSYSLTISSMEAEDAATYYCQQWSSNPLTFGGGTKLEIK	binds	no binding	–
anti-CD40 antibody 41-I22 (antibody, V domains shown, Mouse hybridoma monoclonal antibody tested as hybridoma supernatant and detected with anti-mouse IgG-HRP) VH: EVQLQQSGAVLVKPGASVRLSCTASGFNIKDTYIHWVKQRPEQGLEWIGKIDPANGNTKFDPKFQGKATIAADTSSNTAYLQLSSLTSEDTAVYYCARDYYGTIFPYWYFDVWGAGTTVTVSS VL: QIVLTQSPAIMSASPGEKVTITCSASSSVSYMHWFQQKPGTSPKFWIYITSNLASGVPARFSGSGSGTSYSLTISRMEAEDAATYYCQQRSSYPLTFGAGTKLELK	binds	no binding	–
anti-CD40 antibody 10-K9 (antibody, V domains shown, Mouse hybridoma monoclonal antibody tested as hybridoma supernatant and detected with anti-mouse IgG-HRP) VH: EVQLVESGGDLVKPGGSLKLSCAASGFTFSSYGMSWVRQTPDKRLEWVATISSDGSHTYYPDSVKGRFTISRDIAKNTLYLQMSSLKSEDTAMYYCVRQGRYVPSFDVWGAGTTVTVSS VL: DIVLTQSPATLSVTPGDSVSLSCRASQSIRNNLHWYQQKSHESPRLLIKDASQSISGTPSRFSGSGSGTDFTLSINSVETEDFGMYFCHQTNNWPFTFGSGTKLEIK	–	no binding	binds
anti-CD40 antibody 26-I22 (antibody, V domains shown, Mouse hybridoma monoclonal antibody tested as hybridoma supernatant and detected with anti-mouse IgG-HRP) VH: QVQLQQPGAELVKPGASVKLSCKASGYTFINYWINWMRQRPGQGLEWIGNIYPGSSSTTYNEKFKSKAALTVDTSSSTAYMQLSSLTSDDSAVYFCARSVGYWYFDVWGAGTTVTVSS VL: DIVMSQSPSSLAVSVGEKVTLSCKSSQSLFFSGNQKNFLAWYQQKPGQSPNLLIFWASTRESGVPDRFTGSGSGTDFTLTISSVKAEDLAVYYCQQYYSYPFTFGSGTKLEIK	binds	–	–

Continued, values first:

binding result (human CD40 [1])	binding result (mouse CD40)	binding result (human CD40 [2])	Binder
binds	no binding	–	anti-CD40 antibody 12-O17 (antibody, V domains shown, Mouse hybridoma monoclonal antibody tested as hybridoma supernatant and detected with anti-mouse IgG-HRP) VH: QVQLQQSGAELMKPGASVKISCKATGYTFSTYWIEWVKQRPGHGLEWIGEILPGSGSTNYNENFKGKATFTADTSSNTAYMQLSSLTSEDSAVYFCARGGLYYYGGAMDYWGQGTSVTVSS VL: DIVMSQSPSSLAVSVGEKVTMSCKSSQSLLYSGNQKNYLAWYQQKPGQSPKLLIYWASIRESGVPDRFTGSGSGTDFTLTISSVKAEDLAVYYCQQYYSYPYTFGGGTKVEIK
binds	–	–	anti-CD40 antibody 9-P1 (antibody, V domains shown, Mouse hybridoma monoclonal antibody tested as hybridoma supernatant and detected with anti-mouse IgG-HRP) VH: QVQLQQSGAELMKPGASVKISCKATGYTFSTYWIEWVKQRPGHGLEWIGEILPGSGSTNYNEKFRGKATFTADTSSNTAYMQLSSLTSEDSAVYYCARSYYTYDQGSWLAYWGQGTLVTVSA VL: DIVMSQSPSSLAVSVGEKVTMTCKSSQSLLYSGNQKNYLAWYQQKPGQSPKLLINWASTRESGVPDRLTGSGSGTDFSLTISSVKAEDLAVYYCQQYYSYPYTFGGGTKLEIK
–	–	binds	anti-CD40 antibody 10-B8 (antibody, V domains shown, Mouse hybridoma monoclonal antibody tested as hybridoma supernatant and detected with anti-mouse IgG-HRP) VH: QVQLQQPGSVLVRPGASVKLSCKASGFTFATSWMHWAKERPGQGLEWIGQIHPNSGNTNYNEKFKGKATLTVDTSSSTAYVDLSSLTSEDSAVYYCARGADYAMDYWGQGTSVTVSS VL: DVLMTQTPLSLPVSLGDQASISCRSSQSIVHSNGNTYLEWYLQKPGQSPKLLIYIVSNRFSGVPDRFSGSGSGTDFTLKISRVEAEDLGVYYCFQGSHVPWTFGGGTKLEIK
